In paper PMC5825201 (mAbs, 2018):

Target: endogenous human tissue factor on MDA-MB-231 breast cancer cells (Homo sapiens (MDA-MB-231 cells), UniProt P13726)
Experiment: flow cytometry on cells

Sequence of endogenous human tissue factor on MDA-MB-231 breast cancer cells (P13726 33-295): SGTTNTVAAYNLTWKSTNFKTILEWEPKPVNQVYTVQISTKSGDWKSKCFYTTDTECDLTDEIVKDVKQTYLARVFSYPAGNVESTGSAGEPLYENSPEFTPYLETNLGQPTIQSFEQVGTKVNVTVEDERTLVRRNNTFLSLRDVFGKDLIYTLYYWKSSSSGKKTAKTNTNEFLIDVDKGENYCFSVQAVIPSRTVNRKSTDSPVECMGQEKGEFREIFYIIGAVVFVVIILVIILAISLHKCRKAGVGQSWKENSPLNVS

cell binding (% to 10H10): 100%
B1: chimeric mouse/human version of 10H10 mAb (antibody, V domains shown)
VH: QVHLQQSGAELMKPGASVKISCKASGYTFITYWIEWVKQRPGHGLEWIGDILPGSGSTNYNENFKGKATFTADSSSNTAYMQLSSLTSEDSAVYYCARSGYYGNSGFAYWGQGTLVTVSA
VL: DIVMTQSPSSLTVTAGEKVTMSCKSSQSLLSSGNQKNYLTWYQQIPGQPPKLLIYWASTRESGVPDRFTGSGSGTDFTLTINSVQAEDLAVYYCQNDYTYPLTFGAGTKLELK
